Molecular target: T1, agonist-bound β2AR-356 reconstituted at high density into phospholipid vesicles (UniProt P07550 1-365)
T1 construct: Solid phase coated on Maxisorb plates for ELISA; also called purified receptor alone; reconstituted receptor alone
Test: ELISA on purified receptor alone

Row | Binder | binding result
1 | Nanobody 36 (CA4436) (VHH, also called Nb36) VHH: QVQLQESGGGSVQAGGSLRLSCTVSGTIFSVTVMGWYRQAPGKQRELVAGFTNTRNTNYVDSVKGRFTISKDSAKNTMYLQMNSLKPEDTAVYYCNVRRWGGTNWNDYWGQGTQVTVSS | no binding
2 | Nanobody 35 (CA4435) (VHH, Llama VHH raised against the BS2G cross-linked β2AR:Gs:BI167107 complex; expressed in E. coli periplasm; also called Nb35; NB35) VHH: QVQLQESGGGLVQPGGSLRLSCAASGFTFSNYKMNWVRQAPGKGLEWVSDISQSGASISYTGSVKGRFTISRDNAKNTLYLQMNSLKPEDTAVYYCARCPAPFTRDCFDVTSTTYAYRGQGTQVTVSS | no binding
3 | Nanobody 33 (CA4433) (VHH, Tested as periplasmic extract in ELISA; also called Nb33) VHH: QVQLQESGGGLVQPGGSLRLSCAASGFTFSNYVMNWVRQAPGKGLEWVSDISNGGGTTSYASSVKGRFTISRDNAKNTLYLQMNGLKPADTAVYYCARCPAPFTNDCMDITSTTYAYRGQGTQVTVSS | no binding

Other lines, results leading:

Row | binding result | Binder
4 | no binding | Nanobody 37 (CA4437) (VHH, also called Nb37) VHH: QVQLQESGGGFVQAGGSLRLSCAASGSIFSKNTMAWFRQAPGKERELVAASPTGGSTAYKDSVKGRFTISRDSAKNTVLLQMNVLKPEDTAVYYCHLRQNNRGSWFHYWGQGTQVTVSS
5 | no binding | Nanobody 40 (CA4440) (VHH, Tested as periplasmic extract in ELISA; also called Nb40) VHH: QVQLQESGGGLVQAGGSLRLSCAVSGTIFDITPMGWYRQTPGKQREVVADLTSRGTTNYADSVKGRFTISRDNAKKMLYLQMNSLKSDDTGVYYCNVKRWGGIGWNDYWGQGTQVTVSS
6 | no binding | Nanobody 41 (CA4441) (VHH, Tested as periplasmic extract in ELISA; also called Nb41) VHH: QVQLQESGGGLVQSGGSLRLSCVASGFRFSNFPMMWVRQAPGKGLEWVSLISIGGSTTNYADSVKGRFTISRDNAKNTLFLQMNSLKPEDTAVYYCAKYLGRLVPPTTEGQGTQVTVSS
